Reference: IntAct's records for PubMed 12845325

B1: Integrin alpha-L (Homo sapiens), P20701 (parent)
chain: MKDSCITVMAMALLSGFFFFAPASSYNLDVRGARSFSPPRAGRHFGYRVLQVGNGVIVGAPGEGNSTGSLYQCQSGTGHCLPVTLRGSNYTSKYLGMTLATDPTDGSILACDPGLSRTCDQNTYLSGLCYLFRQNLQGPMLQGRPGFQECIKGNVDLVFLFDGSMSLQPDEFQKILDFMKDVMKKLSNTSYQFAAVQFSTSYKTEFDFSDYVKRKDPDALLKHVKHMLLLTNTFGAINYVATEVFREELGARPDATKVLIIITDGEATDSGNIDAAKDIIRYIIGIGKHFQTKESQETLHKFASKPASEFVKILDTFEKLKDLFTELQKKIYVIEGTSKQDLTSFNMELSSSGISADLSRGHAVVGAVGAKDWAGGFLDLKADLQDDTFIGNEPLTPEVRAGYLGYTVTWLPSRQKTSLLASGAPRYQHMGRVLLFQEPQGGGHWSQVQTIHGTQIGSYFGGELCGVDVDQDGETELLLIGAPLFYGEQRGGRVFIYQRRQLGFEEVSELQGDPGYPLGRFGEAITALTDINGDGLVDVAVGAPLEEQGAVYIFNGRHGGLSPQPSQRIEGTQVLSGIQWFGRSIHGVKDLEGDGLADVAVGAESQMIVLSSRPVVDMVTLMSFSPAEIPVHEVECSYSTSNKMKEGVNITICFQIKSLIPQFQGRLVANLTYTLQLDGHRTRRRGLFPGGRHELRRNIAVTTSMSCTDFSFHFPVCVQDLISPINVSLNFSLWEEEGTPRDQRAQGKDIPPILRPSLHSETWEIPFEKNCGEDKKCEANLRVSFSPARSRALRLTAFASLSVELSLSNLEEDAYWVQLDLHFPPGLSFRKVEMLKPHSQIPVSCEELPEESRLLSRALSCNVSSPIFKAGHSVALQMMFNTLVNSSWGDSVELHANVTCNNEDSDLLEDNSATTIIPILYPINILIQDQEDSTLYVSFTPKGPKIHQVKHMYQVRIQPSIHDHNIPTLEAVVGVPQPPSEGPITHQWSVQMEPPVPCHYEDLERLPDAAEPCLPGALFRCPVVFRQEILVQVIGTLELVGEIEASSMFSLCSSLSISFNSSKHFHLYGSNASLAQVVMKVDVVYEKQMLYLYVLSGIGGLLLLLLIFIVLYKVGFFKRNLKEKMEAGRGVPNGIPAEDSEQLASGQEAGDPGCLKPLHEKDSESGGGKD
partner: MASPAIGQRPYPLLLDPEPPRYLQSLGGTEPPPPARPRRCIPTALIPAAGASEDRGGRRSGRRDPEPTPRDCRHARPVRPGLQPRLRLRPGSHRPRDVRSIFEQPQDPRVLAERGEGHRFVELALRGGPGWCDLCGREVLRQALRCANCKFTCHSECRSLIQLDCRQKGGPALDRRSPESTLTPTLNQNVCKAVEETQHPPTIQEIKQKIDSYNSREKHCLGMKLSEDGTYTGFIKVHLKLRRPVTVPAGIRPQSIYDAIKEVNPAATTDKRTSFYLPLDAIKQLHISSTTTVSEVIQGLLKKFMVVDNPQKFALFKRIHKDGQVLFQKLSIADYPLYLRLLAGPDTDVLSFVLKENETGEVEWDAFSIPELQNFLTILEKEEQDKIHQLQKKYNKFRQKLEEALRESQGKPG

Variants of: B1
Conditions: with rasf5_mouse Rassf5, Q5EBH1

| effect of a mutation on the interaction | Variant |
| --- | --- |
| disrupting interaction | K1122A;K1124A |
